Key:
[1] = molecular target: biotinylated human SIRPα allele 2 domain 1 (a2d1) (human) (UniProt P78324); assay: SPR, Biacore T100, biotinylated SIRPα on SA chip, 25 C, 1:1 Langmuir model
[2] = molecular target: biotinylated human SIRPα allele 1 domain 1 (a1d1) (human) (UniProt P78324); assay: as above
Chain of biotinylated human SIRPα allele 1 domain 1 (a1d1) (human) (P78324 other isoform, or with tags, fused parts or gaps): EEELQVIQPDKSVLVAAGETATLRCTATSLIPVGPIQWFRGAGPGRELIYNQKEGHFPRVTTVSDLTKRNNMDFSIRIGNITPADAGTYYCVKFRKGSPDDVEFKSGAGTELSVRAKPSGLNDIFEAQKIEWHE

Chain of biotinylated human SIRPα allele 2 domain 1 (a2d1) (human) (P78324 other isoform, or with tags, fused parts or gaps): as above

Kd [1]: 476 nM
Kd [2]: 285 nM
Substance: WT CD47 (human CD47 IgSF domain, C15G, C-terminal 8x histidine tag) (from UniProt Q08722 19-135) (ligand)
